According to PMC4027207, “Molecular dissection of the domain architecture and catalytic activities of human PrimPol” (Nucleic Acids Research, 2014):

Biological target: T1, PrimPol372-560/ZF-KO (Homo sapiens, UniProt Q96LW4 372-560, C419A;H426A)
T1 sequence: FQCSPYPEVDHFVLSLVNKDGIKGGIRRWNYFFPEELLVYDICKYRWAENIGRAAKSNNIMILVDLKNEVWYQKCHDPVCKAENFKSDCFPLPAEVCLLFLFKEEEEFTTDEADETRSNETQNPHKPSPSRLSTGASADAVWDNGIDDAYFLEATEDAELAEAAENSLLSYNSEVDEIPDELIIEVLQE
Assay: EMSA; 10 mM Mg2+; 40 nM DNA; no binding, protein 0.05-20 uM; 10 mM Bis-Tris-Propane-HCl pH 7.0, 10 mM MgCl2, 1 mM DTT, 40 nM DNA, 25°C, 60 min; 5% polyacrylamide gel in 0.5x TBE
Conditions: protein: recombinant; tags: His (Ni-NTA purified); label: 5'-Hex

Does TGTCGTCTGTTCGGTCGTTCGGTCTTCAAGGCTGTTGTGCGCCCTGCGCG (ssDNA) [HP-50 ssDNA (sequence 7)] bind?
Result: no binding
